Results on one substance are retold here after article PMC11321707.

A short description of data set [1]: diffusion-ordered NMR spectroscopy (DOSY); R5 in the presence of Pi, 25 °C; hydrodynamic radius by Stokes-Einstein, spherical model; monomer to trimer. The conditions noted are these: other: diffusion-ordered NMR spectroscopy (DOSY).
The nature of data set [2]: 1H-15N HSQC NMR (signal loss and chemical shift perturbation upon self-assembly); R5 in phosphate-buffered solution, 50 mM Pi, pH 6.5, 25 °C; compared with R5 without Pi. The note with it: other: 1H-15N HSQC NMR (signal loss and chemical shift perturbation upon self-assembly).
Data set [3] is described as follows: 1H-15N HSQC NMR (signal loss and chemical shift perturbation upon self-assembly); R5 in phosphate-buffered solution, 11.8 mM Pi, pH 6.5, 25 °C; compared with R5 without Pi. The conditions noted are these: other: 1H-15N HSQC NMR (signal loss and chemical shift perturbation upon self-assembly).

For R5 peptide, in data set [1], the “N with Pi” value was “an aggregate volume that fits three R5 units”. Moreover, the “percent of the peptides outside the large self-assemblies, with Pi” value in data set [2] was “≈0.7 and ≈0.01% of the peptides remained outside the large self‐assemblies”; in data set [3] it was “≈0.7 and ≈0.01% of the peptides remained outside the large self‐assemblies”.
